Biological target: the molecule itself
Assay: cryo-EM structure; electron cryo tomography and sub-volume averaging of gB H516P on purified extracellular vesicles; vesicles in 20 mM Hepes (pH 8), 150 mM NaCl; 46,067 sub-volumes, C3 symmetrised; ectodomain 9.0 Å; domains of the postfusion crystal structure fitted as rigid bodies and by MD-based flexible fitting

B1: HSV-1 glycoprotein B H516P, full-length, membrane-anchored, on extracellular vesicles (natural protein)
chain: not shown
notes: glycoprotein B (gB) of herpes simplex virus 1, full length with membrane anchor and cytoplasmic domain, gene in plasmid pEP98; Trimer embedded in the vesicle membrane; prefusion (compact) conformation; also called gB H516P; H516P gB variant; source: BHK-21 cells, transiently transfected; on extracellular vesicles harvested from the supernatant by differential centrifugation
- stoichiometry N: 3

From publication PMC7518877, “The prefusion structure of herpes simplex virus glycoprotein B” (Science Advances, 2020)
